The target of assay [1] is T1, FcγRIIb extracellular domain with C-terminal His tag (human, UniProt P31994 43-217).
T1 construct: extracellular domain; also called 2b; FcgRIIb
T1 sequence (looked up): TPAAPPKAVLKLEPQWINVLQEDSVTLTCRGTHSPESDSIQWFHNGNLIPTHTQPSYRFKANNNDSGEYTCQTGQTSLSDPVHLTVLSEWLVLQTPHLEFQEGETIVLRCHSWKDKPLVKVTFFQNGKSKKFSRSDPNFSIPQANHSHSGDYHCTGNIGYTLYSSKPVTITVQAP
Description: SPR, binding relative to GpH7-A5/GpH7-B3/GpL16-k0 = 100. The procedure:
(§1) The heterodimerized antibodies He Abs in which one of the H chains was introduced with an alteration were assayed for their binding activities to each activating FcγR and inhibitory FcγR according to the method described in Example 4. […] The activating FcγRs in FIGS. 26, 27, 28, and 29 are FcγRIa, FcγRIIa (R), FcγRIIa (H), and FcγRIIIa, respectively.
(§2) Analysis of interaction between objective antibody and the FcγR was carried out using Biacore T100 (GE Healthcare). HBS-EP+ (GE Healthcare) was used as the running buffer, and the measurement temperature was set to 25° C. Chips produced by immobilizing the antigen peptide by the amine coupling method to a Series S Sencor Chip CM5 (GE Healthcare), or alternatively, chips produced by allowing preliminarily biotinylated antigen peptides to interact with and immobilize onto a Series S Sensor Chip SA (certified) (GE Healthcare) were used. Antibodies of interest were captured onto an antigen peptide-immobilized chip, and allowed to interact to each FcγR diluted with running buffer. To regenerate and repeatedly use the chip, the antibodies captured on the chip were washed off by reacting 10 mM glycine-HCl, pH 1.5.

For assay [2], the target named is T2, FcγRIIIa extracellular domain with C-terminal His tag (human, UniProt P08637 17-208).
T2 construct: extracellular domain; also called 3a; FcgRIIIa
Described as above. The procedure:
as §1, §2

In assay [3] the target is T3, FcγRIIb, extracellular domain with C-terminal His tag (human, UniProt P31994 43-217).
T3 construct: extracellular domain; also called 2b; FcgRIIb; not shown: His tag at the C terminus
T3 sequence (looked up): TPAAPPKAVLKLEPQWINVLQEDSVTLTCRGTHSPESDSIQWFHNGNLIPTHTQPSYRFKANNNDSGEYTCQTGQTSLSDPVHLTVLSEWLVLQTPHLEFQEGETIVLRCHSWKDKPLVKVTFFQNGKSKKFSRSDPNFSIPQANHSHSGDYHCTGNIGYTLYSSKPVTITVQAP
Description: SPR (Biacore), relative binding, GpH7-A5/GpH7-B3/GpL16-k0 = 100.

The target in assay [4] is T4, FcγRIIa H (FcgRIIa type H, His at position 131), extracellular domain with C-terminal His tag (human, UniProt P12318 34-217).
T4 construct: extracellular domain; also called 2aH; FcgRIIa H; not shown: His tag at the C terminus
T4 sequence (looked up): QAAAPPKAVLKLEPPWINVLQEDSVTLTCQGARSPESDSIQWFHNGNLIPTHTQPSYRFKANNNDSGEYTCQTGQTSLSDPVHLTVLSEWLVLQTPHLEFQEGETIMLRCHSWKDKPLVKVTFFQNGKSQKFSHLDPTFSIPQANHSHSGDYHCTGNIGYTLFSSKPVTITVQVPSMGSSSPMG
The description is as above.

T2 sequence (P08637 17-208): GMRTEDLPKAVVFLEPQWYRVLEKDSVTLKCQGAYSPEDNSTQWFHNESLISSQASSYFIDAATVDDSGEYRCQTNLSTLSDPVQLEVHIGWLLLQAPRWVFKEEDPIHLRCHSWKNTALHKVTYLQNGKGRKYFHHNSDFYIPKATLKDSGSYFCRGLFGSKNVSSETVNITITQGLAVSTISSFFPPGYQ

B1: GpH7-A5/GpH7-B3 variant T335_06M/GpL16-k0 (antibody, human IgG1, kappa)
heavy 1: not shown
heavy 2: not shown
light: DIVMTQSPLSLPVTPGEPASISCQASESLVHSNRNTYLHWYLQKPGQSPQLLIYKVSNRFSGVPDRFSGSGSGTDFTLKISRVEAEDVGVYYCSQNTHVPPTFGQGTKVEIERTVAAPSVFIFPPSDEQLKSGTASVVCLLNNFYPREAKVQWKVDNALQSGNSQESVTEQDSKDSTYSLSSTLTLSKADYEKHKVYACEVTHQGLSSPVTKSFNRGEC
notes: also called He Ab
B1: the He/Con_2b in assay [1] is 99.4 % of control. Moreover, the He/Con_3a in assay [2] was 102 % of control.

B2: GpH7-A5/GpH7-B3 variant K326_15Y/GpL16-k0 (antibody, human IgG1, kappa)
heavy 1: not shown
heavy 2: not shown
light: DIVMTQSPLSLPVTPGEPASISCQASESLVHSNRNTYLHWYLQKPGQSPQLLIYKVSNRFSGVPDRFSGSGSGTDFTLKISRVEAEDVGVYYCSQNTHVPPTFGQGTKVEIERTVAAPSVFIFPPSDEQLKSGTASVVCLLNNFYPREAKVQWKVDNALQSGNSQESVTEQDSKDSTYSLSSTLTLSKADYEKHKVYACEVTHQGLSSPVTKSFNRGEC
notes: He Ab; alteration in one H chain only; also called He Ab
For B2, the He/Con_2b in assay [3] was 159 % of control. Also, the He/Con_2aH in assay [4] is 98.3 % of control.

B3: GpH7-A5/GpH7-B3 variant A327_18N/GpL16-k0 (antibody, human IgG1, kappa)
heavy 1: not shown
heavy 2: not shown
light: DIVMTQSPLSLPVTPGEPASISCQASESLVHSNRNTYLHWYLQKPGQSPQLLIYKVSNRFSGVPDRFSGSGSGTDFTLKISRVEAEDVGVYYCSQNTHVPPTFGQGTKVEIERTVAAPSVFIFPPSDEQLKSGTASVVCLLNNFYPREAKVQWKVDNALQSGNSQESVTEQDSKDSTYSLSSTLTLSKADYEKHKVYACEVTHQGLSSPVTKSFNRGEC
notes: as for B2
For the molecule B3, in assay [3], the He/Con_2b was 113 % of control. Moreover, the He/Con_2aH in assay [4] is 66.8 % of control.

B4: GpH7-A5/GpH7-B3 variant Y300_08L/GpL16-k0 (antibody, human IgG1, kappa)
heavy 1: not shown
heavy 2: not shown
light: DIVMTQSPLSLPVTPGEPASISCQASESLVHSNRNTYLHWYLQKPGQSPQLLIYKVSNRFSGVPDRFSGSGSGTDFTLKISRVEAEDVGVYYCSQNTHVPPTFGQGTKVEIERTVAAPSVFIFPPSDEQLKSGTASVVCLLNNFYPREAKVQWKVDNALQSGNSQESVTEQDSKDSTYSLSSTLTLSKADYEKHKVYACEVTHQGLSSPVTKSFNRGEC
notes: also called He Ab
For B4, the He/Con_2b in assay [1] is 73.6 % of control. The He/Con_3a in assay [2] is 105 % of control.

B5: GpH7-A5/GpH7-B3 variant A327_01G/GpL16-k0 (antibody, human IgG1, kappa)
heavy 1: not shown
heavy 2: not shown
light: DIVMTQSPLSLPVTPGEPASISCQASESLVHSNRNTYLHWYLQKPGQSPQLLIYKVSNRFSGVPDRFSGSGSGTDFTLKISRVEAEDVGVYYCSQNTHVPPTFGQGTKVEIERTVAAPSVFIFPPSDEQLKSGTASVVCLLNNFYPREAKVQWKVDNALQSGNSQESVTEQDSKDSTYSLSSTLTLSKADYEKHKVYACEVTHQGLSSPVTKSFNRGEC
notes: as for B2
On to B5, for which, in assay [3], the He/Con_2b is 116 % of control. For the same molecule, in assay [4], the He/Con_2aH is 97.2 % of control.

B6: GpH7-A5/GpH7-B3 variant A330_05P/GpL16-k0 (antibody, human IgG1, kappa)
heavy 1: not shown
heavy 2: not shown
light: DIVMTQSPLSLPVTPGEPASISCQASESLVHSNRNTYLHWYLQKPGQSPQLLIYKVSNRFSGVPDRFSGSGSGTDFTLKISRVEAEDVGVYYCSQNTHVPPTFGQGTKVEIERTVAAPSVFIFPPSDEQLKSGTASVVCLLNNFYPREAKVQWKVDNALQSGNSQESVTEQDSKDSTYSLSSTLTLSKADYEKHKVYACEVTHQGLSSPVTKSFNRGEC
notes: as for B2
As for B6, the He/Con_2b in assay [3] is 137 % of control. Also, in assay [4], the He/Con_2aH was 85.7 % of control.

B7: GpH7-A5/GpH7-B3 variant K334_10E/GpL16-k0 (antibody, human IgG1, kappa)
heavy 1: not shown
heavy 2: not shown
light: DIVMTQSPLSLPVTPGEPASISCQASESLVHSNRNTYLHWYLQKPGQSPQLLIYKVSNRFSGVPDRFSGSGSGTDFTLKISRVEAEDVGVYYCSQNTHVPPTFGQGTKVEIERTVAAPSVFIFPPSDEQLKSGTASVVCLLNNFYPREAKVQWKVDNALQSGNSQESVTEQDSKDSTYSLSSTLTLSKADYEKHKVYACEVTHQGLSSPVTKSFNRGEC
notes: as for B2
For B7, the He/Con_2b in assay [3] was 114 % of control. Also, in assay [4], the He/Con_2aH was 98.2 % of control.

B8: GpH7-A5/GpH7-B3 variant A327_10E/GpL16-k0 (antibody, human IgG1, kappa)
heavy 1: not shown
heavy 2: not shown
light: DIVMTQSPLSLPVTPGEPASISCQASESLVHSNRNTYLHWYLQKPGQSPQLLIYKVSNRFSGVPDRFSGSGSGTDFTLKISRVEAEDVGVYYCSQNTHVPPTFGQGTKVEIERTVAAPSVFIFPPSDEQLKSGTASVVCLLNNFYPREAKVQWKVDNALQSGNSQESVTEQDSKDSTYSLSSTLTLSKADYEKHKVYACEVTHQGLSSPVTKSFNRGEC
notes: as for B2
Turning to B8, the He/Con_2b in assay [3] was 140 % of control. Besides, the He/Con_2aH in assay [4] is 91.3 % of control.

B9: GpH7-A5/GpH7-B3 variant K334_02A/GpL16-k0 (antibody, human IgG1, kappa)
heavy 1: not shown
heavy 2: not shown
light: DIVMTQSPLSLPVTPGEPASISCQASESLVHSNRNTYLHWYLQKPGQSPQLLIYKVSNRFSGVPDRFSGSGSGTDFTLKISRVEAEDVGVYYCSQNTHVPPTFGQGTKVEIERTVAAPSVFIFPPSDEQLKSGTASVVCLLNNFYPREAKVQWKVDNALQSGNSQESVTEQDSKDSTYSLSSTLTLSKADYEKHKVYACEVTHQGLSSPVTKSFNRGEC
notes: as for B2
Turning to B9, the He/Con_2b in assay [3] is 108 % of control. Further, the He/Con_2aH in assay [4] is 97 % of control.

B10: GpH7-A5/GpH7-B3 variant K334_05P/GpL16-k0 (antibody, human IgG1, kappa)
heavy 1: not shown
heavy 2: not shown
light: DIVMTQSPLSLPVTPGEPASISCQASESLVHSNRNTYLHWYLQKPGQSPQLLIYKVSNRFSGVPDRFSGSGSGTDFTLKISRVEAEDVGVYYCSQNTHVPPTFGQGTKVEIERTVAAPSVFIFPPSDEQLKSGTASVVCLLNNFYPREAKVQWKVDNALQSGNSQESVTEQDSKDSTYSLSSTLTLSKADYEKHKVYACEVTHQGLSSPVTKSFNRGEC
notes: as for B2
Turning to B10, in assay [3], the He/Con_2b was 105 % of control. Besides, the He/Con_2aH in assay [4] is 97.6 % of control.

B11: GpH7-A5/GpH7-B3 variant K326_20W/GpL16-k0 (antibody, human IgG1, kappa)
heavy 1: not shown
heavy 2: not shown
light: DIVMTQSPLSLPVTPGEPASISCQASESLVHSNRNTYLHWYLQKPGQSPQLLIYKVSNRFSGVPDRFSGSGSGTDFTLKISRVEAEDVGVYYCSQNTHVPPTFGQGTKVEIERTVAAPSVFIFPPSDEQLKSGTASVVCLLNNFYPREAKVQWKVDNALQSGNSQESVTEQDSKDSTYSLSSTLTLSKADYEKHKVYACEVTHQGLSSPVTKSFNRGEC
notes: as for B2
In the case of B11, the He/Con_2b in assay [3] is 148 % of control. In assay [4], the He/Con_2aH is 83.3 % of control.

B12: GpH7-A5/GpH7-B3 variant A327_07I/GpL16-k0 (antibody, human IgG1, kappa)
heavy 1: not shown
heavy 2: not shown
light: DIVMTQSPLSLPVTPGEPASISCQASESLVHSNRNTYLHWYLQKPGQSPQLLIYKVSNRFSGVPDRFSGSGSGTDFTLKISRVEAEDVGVYYCSQNTHVPPTFGQGTKVEIERTVAAPSVFIFPPSDEQLKSGTASVVCLLNNFYPREAKVQWKVDNALQSGNSQESVTEQDSKDSTYSLSSTLTLSKADYEKHKVYACEVTHQGLSSPVTKSFNRGEC
notes: as for B2
With B12, in assay [3], the He/Con_2b is 127 % of control. The He/Con_2aH in assay [4] was 58.4 % of control.

B13: GpH7-A5/GpH7-B3 variant A330_01G/GpL16-k0 (antibody, human IgG1, kappa)
heavy 1: not shown
heavy 2: not shown
light: DIVMTQSPLSLPVTPGEPASISCQASESLVHSNRNTYLHWYLQKPGQSPQLLIYKVSNRFSGVPDRFSGSGSGTDFTLKISRVEAEDVGVYYCSQNTHVPPTFGQGTKVEIERTVAAPSVFIFPPSDEQLKSGTASVVCLLNNFYPREAKVQWKVDNALQSGNSQESVTEQDSKDSTYSLSSTLTLSKADYEKHKVYACEVTHQGLSSPVTKSFNRGEC
notes: as for B2
For B13, the He/Con_2b in assay [3] was 104 % of control. Also, in assay [4], the He/Con_2aH is 99 % of control.

B14: GpH7-A5/GpH7-B3 variant K326_16H/GpL16-k0 (antibody, human IgG1, kappa)
heavy 1: not shown
heavy 2: not shown
light: DIVMTQSPLSLPVTPGEPASISCQASESLVHSNRNTYLHWYLQKPGQSPQLLIYKVSNRFSGVPDRFSGSGSGTDFTLKISRVEAEDVGVYYCSQNTHVPPTFGQGTKVEIERTVAAPSVFIFPPSDEQLKSGTASVVCLLNNFYPREAKVQWKVDNALQSGNSQESVTEQDSKDSTYSLSSTLTLSKADYEKHKVYACEVTHQGLSSPVTKSFNRGEC
notes: as for B2
Regarding B14, the He/Con_2b in assay [3] is 119 % of control. The He/Con_2aH in assay [4] was 97.9 % of control.

For the origin of these results see patent publication US20150344570A1 (published 2015).
